# Substitutions are numbered along the chain they refer to. Names may count otherwise.
# B1: P2H8: T. maritima Cel5A cellulase mutant with D40N and L231R; SEQ ID NO: 2 (protein, listed as Thermotoga maritima)
# chain: MGVDPFERNKILGRGINIGNALEAPNEGDWGVVIKDEFFNIIKEAGFSHVRIPIRWSTHAYAFPPYKIMDRFFKRVDEVINGALKRGLAVVINIHHYEELMNDPEEHKERFLALWKQIADRYKDYPETLFFEILNEPHGNLTPEKWNELLEEALKVIRSIDKKHTIIIGTAEWGGISALEKLSVPKWEKNSIVTIHYYNPFEFTHQGAEWVEGSEKWLGRKWGSPDDQKHRIEEFNFIEEWSKKNKRPIYIGEFGAYRKADLESRIKWTSFVVREMEKRRWSWAYWEFCSGFGVYDTLRKTWNKDLLEALIGGDSIE
# B2: P15G2: T. maritima Cel5A cellulase mutant with K35N, E209G and A256T; SEQ ID NO: 8 (protein, listed as Thermotoga maritima)
# chain: B1 chain with K35N, N40D, E209G, R231L, A256T
# B3: P4B5: T. maritima Cel5A cellulase mutant with K155N; SEQ ID NO: 4 (protein, listed as Thermotoga maritima)
# chain: B1 chain with N40D, K155N, R231L
# B4: P13F6: T. maritima Cel5A cellulase mutant with E132D, N140S, E202K and K304N; SEQ ID NO: 6 (protein, listed as Thermotoga maritima)
# chain: B1 chain with N40D, E132D, N140S, E202K, R231L, K304N
# B5: P3D7: T. maritima Cel5A cellulase mutant with E308K; SEQ ID NO: 3 (protein, listed as Thermotoga maritima)
# chain: B1 chain with N40D, R231L, E308K
# B6: P8E4: T. maritima Cel5A cellulase mutant with A113V; SEQ ID NO: 5 (protein, listed as Thermotoga maritima)
# chain: B1 chain with N40D, A113V, R231L
# B7: P15H11: T. maritima Cel5A cellulase mutant with S177R; SEQ ID NO: 22 (protein, listed as Thermotoga maritima)
# chain: B1 chain with N40D, S177R, R231L
# B8: P15B10: T. maritima Cel5A cellulase mutant with D29V and I92F; SEQ ID NO: 7 (protein, listed as Thermotoga maritima)
# chain: B1 chain with D29V, N40D, I92F, R231L
# B9: P1E3: T. maritima Cel5A cellulase mutant with E98A and E106D; SEQ ID NO: 1 (protein, listed as Thermotoga maritima)
# chain: B1 chain with N40D, E98A, E106D, R231L
# Assay: Beta-1,4-endoglucanase (CMCase) activity assay of Cel5ATm mutants
# Assay type: biochemical
# Experimental: CMCase activity assay is carried out in 50 mM Bis-Tris-HCl buffer (pH 6.5) containing 1% carboxylmethylcellulose (CMC) and incubated at 75° C. for 30 min. Reducing sugars are analyzed by DNS method as described in Xiao Z, Storms R and Tsang A (2005) “Microplate-based carboxymethylcellulose assay for endoglucanase activity”, Anal. Biochem. 342: 176-178. Cellobiose is used as reducing sugars standard. 1 U is defined as enzyme amount to produce 1 μmol reducing sugars in one minute at optimal conditions.
# 5 μl supernatant is mixed with 35 μl sterile ddH2O and 40 μl 2% CMC in 100 mM Bis-Tris-HCl (pH 6.5) in 96-well PCR plates. These plates are incubated in thermocyclers at 75° C. for 30 min. 80 μl of DNS reagent is added (Ref 1), mixed and incubated at 95° C. for 5 min. The solution is cooled to 4° C. and transferred 100 μl of the products into 96-well plate for reading the ABS at 540 nm.
# Clones from the mutant library are analyzed as described for the wild-type of Cel5ATm except that after transferring normal cultures into autoinduction medium, normal culture plates are added by sterile glycerol to 10%, mixed and stored at −80° C. for future investigation. The clones with endoglucanase activity larger than 120% of the wild-type are selected to express the enzymes in 5 ml culture and purified by Ni-NTA columns. Activity improvements are confirmed by detection of their specific activity (U/mg) and plasmids sequencing.
row,Molecule,improvement of cellulase activity over the wild-type T. maritima cellulase
1,B1,about 40.56%
2,B2,about 66.92%
3,B3,about 33.02%
4,B4,about 68.51%
5,B5,about 78.76%
6,B6,about 49.06%
7,B7,about 35.98%
8,B8,about 33.79%
9,B9,about 31.77%
